Results reported in patent publication US20210187071A1, “COMPOSITIONS COMPRISING MDA-7/IL-24 PROTEIN AND METHODS OF USE” (VIRGINIA COMMONWEALTH UNIVERSITY, priority 2017, published 2021).
Entries after “also recorded” stand apart in the source; their conditions may differ.

Experiments:
bone marrow cells = assay: In vitro RANKL-induced osteoclast differentiation of primary bone marrow cells; format: cell-based, athymic nude mice; conditions: RANKL induction 5 days, 10 μg/mL MDA-7/IL-24 protein
Method: Osteoclast Formation Assays: Bone marrow cells were induced for osteoclast differentiation using previously described protocols (28). Briefly, bone marrow cells were cultured in minimal essential medium (α-MEM) with 10% fetal bovine serum with MCSF (10 ng/ml) for 24 hrs. They were subsequently treated with RANKL (100 ng/ml) for 5 days. Cultured cells were fixed and stained for TRAP (Tartarate-resistant acid phosphatase). TRAP staining was performed following the specific protocol provided with the kit (Sigma-Aldrich, Inc. St. Louis, Mo., USA). Multinucleated cells, considered as differentiated osteoclasts, were counted manually under bright field microscope. TRACP enzymatic assays were done as per the manufacturer's instructions (R & D, Minneapolis, Minn., USA).
To investigate the effect of MDA-7/IL-24 on osteoclast differentiation, bone marrow cells from athymic nude mice were isolated and induced to differentiate with RANKL in the presence or absence of MDA-7/IL-24 protein. Five days after induction with RANKL, osteoclast differentiation was measured by counting multinucleated cells. Cells positively stained for TRAP and multinucleated cells were quantified under a light microscope (FIG. 9A). […] To provide molecular insights into this inhibitory effect, we used a mouse macrophage cell line RAW 264.7, which can be induced to differentiate into osteoclasts when incubated with RANKL (32). Using RAW 264.7 cells, different genetic markers associated with osteoclastic differentiation were monitored (33). RAW 264.7 cells were treated with RANKL or MDA-7/IL-24 alone and in combination. RNA was isolated after 5 days of treatment and real time PCR quantified expression of TRAP, Cathepsin K (CTSK), and Calcitonin Receptor (CTR) genes. RANKL induced the expression of TRAP, CTSK and CTR gene expression. […] MTT assays were performed to determine if MDA-7/IL-24 caused any growth suppression in this cell line. Proliferation of RAW 264.7 was not affected by MDA-7/IL-24, further illustrating the tumor-specificity of this cytokine (FIG. 10B). DU-145 (PC) cells were used as a positive control (FIG. 10C).

[1] = system: immortalized normal primary human prostate epithelial cells (RWPE-1); assay: Colony formation (clonal) assay in RWPE-1 cells; format: cell-based; conditions: 200 cells plated, colonies counted 2 weeks after treatment
Method: MTT Cell Proliferation and Clonal Assays: Cell proliferation assays were done as described previously (25). Briefly, 2,000 cells were seeded in each well of a 96-well plate and allowed to attach overnight. Cells were treated with complete media in the presence or absence of different concentrations of MDA-7/IL-24 protein. At appropriate time points, cells were further incubated with MTT (3-(4, 5-di methyl thiazol-2-yl)-2, 5 diphenyl tetrazolium bromide) reagents. Finally, DMSO was applied to dissolve the blue salt and the OD was measured at 560 nm (25). For determining long-term effects, colony formation (cloning) assays were performed as described earlier (26). Briefly, 200 cells were plated and allowed to grow in the presence or absence of MDA-7/IL-24 for an additional 15 days. Culture media was replaced with fresh media containing MDA-7/IL-24 protein once a week, two times in total.

B1: MDA-7/IL-24 protein: Recombinant His-tagged MDA-7/IL-24 protein purified on Ni-NTA from supernatant of IM-PHFA cells infected with Ad.5-His-mda-7 (protein)
chain: QEFHFGPCQVKGVVPQKLWEAFWAVKDTMQAQDNITSARLLQQEVLQNVSDAESCYLVHTLLEFYLKTVFKNYHNRTVEVRTLKSFSTLANNFVLIVSQLQPSQENEMFSIRDSAHRRFLLFRRAFKQLDVEAALTKALGEVDILLTWMQKFYKL
number of osteoclasts (osteoclast differentiation) (bone marrow cells; listed as His-MDA-7): decreased significantly
osteoclast activity (TRACP enzymatic activity) (bone marrow cells; listed as His-MDA-7): significantly less
number of osteoclasts (osteoclast differentiation) (bone marrow cells; listed as MDA-7/IL-24): significantly reduced; also recorded: reduced osteoclast differentiation
osteoclast activity (TRACP enzymatic activity) (bone marrow cells; listed as MDA-7/IL-24): significantly reduced
proliferation capacity of RWPE-1 (colony formation) [1]: without affecting the proliferation capacity
